B1: Chemotaxis protein CheY, P0AE67 (parent)
chain: MADKELKFLVVDDFSTMRRIVRNLLKELGFNNVEEAEDGVDALNKLQAGGYGFVISDWNMPNMDGLELLKTIRADGAMSALPVLMVTAEAKKENIIAAAQAGASGYVVKPFTAATLEEKLNKIFEKLGM

Variants of: B1
Details: Escherichia coli (strain K12); pH 7; 25 °C; Urea; CD; Sodium phosphate 5 mM; reversible: yes; structure 1CEY; whole UniProt chain shown

Variant | ddG of mutation (higher = less stable) | denaturant m value | denaturant midpoint (higher = more stable) | unfolding free energy
P110G F14N | -1.1 kcal/mol | 1.6 kcal/mol/M | 3.94 M | 6.3 kcal/mol
F14N | -2.9 kcal/mol | 1.8 kcal/mol/M | 4.5 M | 8.1 kcal/mol

Source: FireProtDB (doi:10.1021/bi00185a025)
